Data on 10 molecules can be found in paper PMC11629607, “Nanobodies against the myelin enzyme CNPase as tools for structural and functional studies” (Journal of Neurochemistry, 2024).

Where two headings read alike, the source gives them in different places.

Data set [1] deals with T1, mouse CNPase catalytic domain (mouse, UniProt P16330).
T1 construct: 2′,3′-cyclic nucleotide 3′-phosphodiesterase (CNPase), mouse, catalytic (C-terminal phosphodiesterase) domain; As used in ITC, crystallisation and SEC-SAXS; also called mCNPase catalytic domain; C-terminal phosphodiesterase domain; source: E. coli Rosetta (DE3), pTH27 vector, autoinduction, purified (SEC)
Description: ITC; 8.5–11 μM CNPase catalytic domain in the cell, 88–95 μM Nb in the syringe; 20 mM HEPES, 150 mM NaCl, 0.5 mM TCEP, pH 7.5; +25°C; 1:1 binding model; single experiments.

Data set [2] concerns the target T1, mouse CNPase catalytic domain. The data set can be described thus: SEC-SAXS; Nb mixed with the CNPase catalytic domain in 1.3-fold molar excess; 20 mM HEPES, 150 mM NaCl, 0.5 mM TCEP, pH 7.5. Background: Size exclusion chromatography separates by hydrodynamic size, large species first.
The target of data set [3] is T2, TOM70-EGFP-CNPase-ALFAtag (Mus musculus (assumed)).
T2 construct: 2′,3′-cyclic nucleotide 3′-phosphodiesterase (CNPase), catalytic domain; also called TOM70‐EGFP‐CNPase (catalytic domain); CNPase anchored to mitochondria; source: COS-7, co-transfected (pcDNA3.1, synthetic gene), in cells; not shown: TOM70 (anchor to the mitochondrial outer membrane), N-terminal, kept; EGFP, internal (between TOM70 and CNPase), kept
T2 chain: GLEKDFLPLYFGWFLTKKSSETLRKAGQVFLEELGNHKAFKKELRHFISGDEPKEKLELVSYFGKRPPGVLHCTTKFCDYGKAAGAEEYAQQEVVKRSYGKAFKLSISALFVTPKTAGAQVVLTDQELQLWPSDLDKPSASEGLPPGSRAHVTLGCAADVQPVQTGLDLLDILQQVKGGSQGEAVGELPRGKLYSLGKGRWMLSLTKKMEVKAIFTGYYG
Description: recruitment to a mitochondria-anchored target (co-localisation by confocal microscopy); COS-7 cells co-transfected with TOM70-EGFP-CNPase and an iNb fused to mRuby3; fixed ca. 16 h after transfection; Pearson's correlation, N = 9 cells. The settings on record: partners not purified.

Data set [4] concerns the target T3, full-length mouse CNPase (Mus musculus (mouse), UniProt P16330).
T3 construct: 2′,3′-cyclic nucleotide 3′-phosphodiesterase (CNPase), mouse, full-length; also called mCNPase; full-length mCNPase; source: E. coli Rosetta (DE3), pTH27 vector, autoinduction, purified (SEC)
The data set can be described thus: DSF thermal shift (SYPRO-Orange); full-length CNPase with Nb; 20 mM HEPES, 150 mM NaCl, 0.5 mM TCEP, pH 7.5; 20–95°C; N = 3. The settings on record: both partners purified.

Data set [5] concerns the target T3, full-length mouse CNPase. The data set can be described thus: nanoDSF thermal shift (Trp fluorescence); complex prepared by SEC, 2 mg/mL; 20 mM HEPES, 200 mM NaCl, 0.5 mM TCEP, pH 7.5. The settings on record: both partners purified. (In DSF a fluorescence change marks the thermal transition of the protein.)
The target in data set [6] is T3, full-length mouse CNPase. The data set can be described thus: enzyme inhibition kinetics (Dixon plot); apparent Ki; 2′,3′-cNADP+ hydrolysis by full-length mCNPase, coupled assay; 100 mM Bis-Tris pH 6.0, 10 mM MgCl2; +25°C. The settings on record: both partners purified.

T3 sequence (P16330 whole entry): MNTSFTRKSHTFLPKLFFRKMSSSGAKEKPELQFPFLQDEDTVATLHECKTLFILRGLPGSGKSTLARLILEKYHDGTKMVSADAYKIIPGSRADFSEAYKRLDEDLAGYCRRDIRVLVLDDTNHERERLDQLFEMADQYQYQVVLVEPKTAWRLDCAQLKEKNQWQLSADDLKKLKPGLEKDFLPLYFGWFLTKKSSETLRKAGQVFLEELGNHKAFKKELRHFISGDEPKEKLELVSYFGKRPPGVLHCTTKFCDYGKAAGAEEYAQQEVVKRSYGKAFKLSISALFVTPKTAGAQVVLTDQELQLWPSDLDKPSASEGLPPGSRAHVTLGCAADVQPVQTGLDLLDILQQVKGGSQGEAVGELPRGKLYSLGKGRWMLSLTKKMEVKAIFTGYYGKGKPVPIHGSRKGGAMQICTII

B1: MaBP-8D (NbCNP 8D fusion with the intact His6-MaBP) (VHH)
VHH: EVQLEESGGGLVQPGGSLRLSCAASGFTFSSYVMSWVRQAPGKGLEWVSDINSGGSRTYYTDSVKGRFTISRDNAKNTLYLQMNSLKPEDTAVYYCARDSLLSTRYLHTSERGQGTQVTVSS
In the case of B1, in data set [1], the Kd (usually the equilibrium constant for the complex coming apart) came out at 0.2 nM, the dH was -45.9 kJ/mol and the stoichiometry N (commonly a count of units in the complex or per binding partner) is 0.837. The same molecule showed a stoichiometry N in data set [2] of 1.

B2: iNbCNP 8D fused to mRuby3 (VHH)
VHH: EVQLEESGGGLVQPGGSLRLSCAASGFTFSSYVMSWVRQAPGKGLEWVSDINSGGSRTYYTDSVKGRFTISRDNAKNTLYLQMNSLKPEDTAVYYCARDSLLSTRYLHTSERGQGTQVTVSS
notes: VHH of NbCNP 8D; also called NbCNP‐8D‐mRuby3; source: COS-7, co-transfected, in cells; not shown: mRuby3, C-terminal, kept
For the molecule B2, the binding result in data set [3] is given as “binds”.

B3: anti-CNPase nanobody NbCNP 8D (VHH)
VHH: EVQLEESGGGLVQPGGSLRLSCAASGFTFSSYVMSWVRQAPGKGLEWVSDINSGGSRTYYTDSVKGRFTISRDNAKNTLYLQMNSLKPEDTAVYYCARDSLLSTRYLHTSERGQGTQVTVSS
notes: this construct has a short, extended tail; The batch from the His14-bdSUMO system was used for structural work; also called Nb 8D; source: E. coli SHuffle Express, His14-bdSUMO fusion, purified (Ni2+ beads, eluted by bdSENP1 cleavage)
As to B3, the “∆Tm” value in the data set with full-length mouse CNPase [4] was determined as 18 °C. For the same molecule, in the data set with full-length mouse CNPase [5], the “∆Tm” value came to 17.7 °C. In data set [1], the Kd is 2.5 nM, the dH is -46.1 kJ/mol and the stoichiometry N came to 0.8. For the same molecule, in data set [2], the stoichiometry N came out at 1.

B4: anti-CNPase nanobody NbCNP 7E (VHH)
VHH: EVQLEESGGGWVHPGGSLRLSCAASGNVFGVNTMAWYRQAPGKQREQRELVASITDYGTTEYADSVKGRFTISGDNAKATVYLQMNSLKPEDTAVYYCNMDLTVMTATSSLYAYDYWGQGTQVTVSS
notes: source: E. coli Shuffle T7, His6-MaBP fusion (pHMGWA), purified (NiNTA, TEV, reverse NiNTA, SEC); not shown: His6, N-terminal, cleaved
Regarding B4, the “∆Tm” value in the data set with full-length mouse CNPase [4] turned out to be 2.1 °C. In data set [1] (both partners purified), binding was characterised by a dissociation constant (Kd) of 83.3 nM, the dH was -59.2 kJ/mol and the “stoichiometry N” value amounted to 0.863. Also, the “stoichiometry N” value in data set [2] (both partners purified) turned out to be 1.

B5: anti-CNPase nanobody NbCNP 10E (VHH)
VHH: EVQLEESGGGLVQPGGSLRLSCAVSGITLDDFGIGWFRQAPGKEREGVACISPGYEHIYYADSAKGRFTISRDNAKNTVYLQMNNLKPWDTGVYYCAADNDLPDRLWGGSDWSDPSPYDYWGQGTQVTVSS
notes: Purified as described for anti-Arc Nbs (Markusson et al., 2022); source: E. coli, pTH27 vector, purified (SEC, TEV, reverse NiNTA, SEC); not shown: His6, N-terminal, cleaved
With B5, the “∆Tm” value with full-length mouse CNPase [4] came to 4.2 °C. In data set [1] (both partners purified), binding was characterised by a dissociation constant (Kd) of 9.8 nM, the dH is -50.6 kJ/mol and the “stoichiometry N” value was 0.804. Moreover, the Ki in the data set with full-length mouse CNPase [6] was found to be 0.604 nM.

B6: iNbCNP 10E fused to mRuby3 (VHH)
VHH: EVQLEESGGGLVQPGGSLRLSCAVSGITLDDFGIGWFRQAPGKEREGVACISPGYEHIYYADSAKGRFTISRDNAKNTVYLQMNNLKPWDTGVYYCAADNDLPDRLWGGSDWSDPSPYDYWGQGTQVTVSS
notes: as the VHH of m9; also called NbCNP 10E-mRuby3; source: COS-7, co-transfected, in cells; not shown: mRuby3, C-terminal, kept
Consider B6, for which the binding result in data set [3] is recorded as “binds”.

B7: MaBP-10E (His6-maltose-binding protein fusion of NbCNP 10E) (VHH)
VHH: EVQLEESGGGLVQPGGSLRLSCAVSGITLDDFGIGWFRQAPGKEREGVACISPGYEHIYYADSAKGRFTISRDNAKNTVYLQMNNLKPWDTGVYYCAADNDLPDRLWGGSDWSDPSPYDYWGQGTQVTVSS
notes: as the VHH of m9; source: E. coli Shuffle T7, pHMGWA vector, purified; not shown: His6, N-terminal, kept
For the molecule B7, in data set [1] (both partners purified), the Kd was determined as 13.4 nM, the dH was -75.6 kJ/mol and the “stoichiometry N” value came out at 0.836.

B8: anti-CNPase nanobody NbCNP 8C (VHH)
VHH: EVQLEESGGGLVQAGGSLTLSCAASGFTFDDYAMGWYRQAPGKERVGVSCISRTDGYTYYLDSVKGRFTISTDHAKHTVYLQMNNLKPDDTGLYYCAADADPEYGSRCPDPYYGMDYWGKGILVTVSS
notes: Extra disulphide between CDR2 and CDR3; source: E. coli Shuffle T7, His6-MaBP fusion (pHMGWA), purified (NiNTA, TEV, reverse NiNTA, SEC); not shown: His6, N-terminal, cleaved
Take B8: the “∆Tm” value with full-length mouse CNPase [4] is 9.2 °C. In addition, in data set [1] (both partners purified), the Kd was found to be 16.6 nM, the dH was -29.6 kJ/mol and the “stoichiometry N” value was 0.914. Besides, the “stoichiometry N” value in data set [2] (both partners purified) is 1.

B9: anti-CNPase nanobody NbCNP 5E (VHH)
VHH: EVQLLESGGGSVQAGGSLRLSCAASGFTVGDYAIGWFRQAPGQQREAVACISTDDGDTYYADSVKGRFTISSDNAKKTAYLEMNNLKPEDTAVYHCAVDGWDSSCTFYSPSYYRDFSDHGAWGQGTQVTVSS
notes: Extra disulphide between CDR2 and CDR3; also called Nb5E; source: E. coli Shuffle T7, His6-MaBP fusion (pHMGWA), purified (NiNTA, TEV, reverse NiNTA, SEC); not shown: His6, N-terminal, cleaved
Consider B9, for which the “∆Tm” value with full-length mouse CNPase [4] is 17 °C. In data set [1], this molecule had a Kd of 2.2 nM, a dH of -57.7 kJ/mol and a stoichiometry N of 0.82. In addition, in data set [2], the stoichiometry N stood at 1.

B10: iNbCNP 5E fused to mRuby3 (VHH)
VHH: EVQLLESGGGSVQAGGSLRLSCAASGFTVGDYAIGWFRQAPGQQREAVACISTDDGDTYYADSVKGRFTISSDNAKKTAYLEMNNLKPEDTAVYHCAVDGWDSSCTFYSPSYYRDFSDHGAWGQGTQVTVSS
notes: as the VHH of m5; also called NbCNP 5E-mRuby3; source: COS-7, co-transfected, in cells; not shown: mRuby3, C-terminal, kept
As to B10, the binding result in data set [3] is “binds”.
